Source: patent US20240091164A1

Target: FcεRIα subunit of the high-affinity IgE receptor (FcεRI) (human) (UniProt P12319)
Assay: cell-based or functional assay

Chain of FcεRIα subunit of the high-affinity IgE receptor (FcεRI) (human) (P12319 26-257 limits assumed, form in doubt): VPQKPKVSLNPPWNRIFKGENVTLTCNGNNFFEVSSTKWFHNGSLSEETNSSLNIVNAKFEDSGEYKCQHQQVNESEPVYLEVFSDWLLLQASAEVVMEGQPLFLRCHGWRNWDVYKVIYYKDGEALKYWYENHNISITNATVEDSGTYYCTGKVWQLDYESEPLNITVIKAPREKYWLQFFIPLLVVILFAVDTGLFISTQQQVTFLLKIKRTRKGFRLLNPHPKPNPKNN

positive population mean for CD63: 52.7%
positive population mean for CD107a: 71.2%
Substance: anti-FcεRIα antibody, clone AER-37 (CRA1)
